From paper PMC8469728, “Molecular and Enzymatic Characterization of Flavonoid 3′-Hydroxylase of Malus × domestica” (Plants, 2021) come the findings set out here.

The target of one data set is T1, CsCH3H (Cosmos sulphureus, UniProt D8KZE8).
T1 construct: recombinant, expressed in Saccharomyces cerevisiae INVSc1, microsomal preparation
T1 sequence (D8KZE8 1-512): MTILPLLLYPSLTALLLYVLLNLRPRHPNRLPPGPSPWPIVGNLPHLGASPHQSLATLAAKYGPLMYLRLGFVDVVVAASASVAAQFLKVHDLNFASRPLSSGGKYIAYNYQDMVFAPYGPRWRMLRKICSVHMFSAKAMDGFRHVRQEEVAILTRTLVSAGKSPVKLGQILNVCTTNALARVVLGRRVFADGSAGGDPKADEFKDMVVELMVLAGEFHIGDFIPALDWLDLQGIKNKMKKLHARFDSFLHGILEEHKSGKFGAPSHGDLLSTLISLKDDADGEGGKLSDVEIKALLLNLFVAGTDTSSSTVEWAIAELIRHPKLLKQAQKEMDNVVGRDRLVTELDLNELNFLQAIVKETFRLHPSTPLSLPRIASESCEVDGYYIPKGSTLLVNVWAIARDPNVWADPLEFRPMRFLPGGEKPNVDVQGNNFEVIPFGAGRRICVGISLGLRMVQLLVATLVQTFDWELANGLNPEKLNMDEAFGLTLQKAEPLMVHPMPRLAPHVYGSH
In words: LC-MS/DAD detection of 3-hydroxyphloretin formed by yeast microsomes. The class given is biochemical. Conditions: 10 µM substrate, 1.55 mM NADPH, 100 mM HEPES pH 7.5, 30 °C.

Substrate in data set [1]: O=c1c(O)c(-c2ccc(O)cc2)oc2cc(O)cc(O)c12
The data set can be described thus: cells, lysate or membranes. Conditions: 0.5 mM NADPH, Tris/HCl pH 6.5–6.75, 25 °C, labelled compound, pH 6.0. The class given is biochemical, Malus domestica.

Substrate in data set [2]: O=C1c2c(O)cc(O)cc2O[C@H](c2ccc(O)cc2)[C@H]1O
The data set can be described thus: cells, lysate or membranes. The class given is biochemical, Malus domestica. Conditions: 0.5 mM NADPH, Tris/HCl pH 6.5–6.75, 25 °C, labelled compound, pH 6.0.

Substrate in data set [3]: O=C1C[C@@H](c2ccc(O)cc2)Oc2cc(O)cc(O)c21
In words: cells, lysate or membranes. The class given is biochemical, Malus domestica. To be noted: 0.5 mM NADPH, Tris/HCl pH 6.5–6.75, 25 °C, labelled compound, pH 6.0.

Regarding `O=C(CCc1ccc(O)cc1)c1c(O)cc(O)cc1O` [phloretin], the “LC-MS/DAD detection of 3-hydroxyphloretin formed by yeast microsomes” value on CsCH3H is listed as “produced sufficient amounts of 3-hydroxyphloretin to be detected by the DAD”.

B1: MdF3′HII (Malus domestica) (protein)
chain: MFVLIFFTVVLAFFLYRLFAPGGSRHALPLPPGPKPWPVVGNLPHLGPVPHHSLAALARQYGPLMHLRLGFADVVVAASASVASQFLKTHDANFSSRPPNSGAKHLAYNYQDLVFAPYGPRWRMLRKISSVHLFSGKALDDLKHVRQEEVGVLAHGLASAGSKPVSLGQLLNVCTVNALGRVMVGRRLFGDGGGREDQKADEFKSMVVEMMVLAGVFNIGDFIPALEWLDLQGVAGKMKKLHKRFDAFLTAIVEDHKRSGEGKHVDMLTTLLSLTDDADGEGAKLTDTEIKALLLNMFTAGTDTSSSTVEWAIAELLRHPKILAQLQQELDQVVGRDRLVTESDLPNLTYLQAVIKETFRLHPSTPLSLPRMASESCEINGFHIPKGATLLVNVWAISRDPAQWSEPLEFRPERFLPGGEKPNVDVKGNDFEVIPFGAGRRICAGMTLGLRMVSLMTATLVHGFDWTLADGLTPEKLNMDEAYGLTLQRAAPLMVHPRNRLAPHAYNASSP
notes: full-length ORF, 511 residues, C-terminal Twin-Strep-tag, expressed in Saccharomyces cerevisiae INVSc1, microsomal preparation; differs from FJ919633 at residues 73 and 457
In general, Km refers to the substrate concentration at which the rate is half of its maximum. By Vmax is commonly meant the rate approached at saturating substrate. For B1, the Michaelis-Menten constant (Km) in data set [1] was determined as 0.20 ± 0.02 µM; in data set [2] it was 0.31 ± 0.03 µM; in data set [3], 0.31 ± 0.10 µM. Besides, the Vmax worked out at 19.8 µM/min in data set [1], 19.8 µM/min in data set [2] and 30 µM/min in data set [3].

B2: MdF3′HI (Malus domestica; I211M) (protein)
chain: MFVLIVFTVVFAFFLYRIFAPGGSRHSLPLPPGPKPWPVVGNLPHLGPVPHHSLAALARQYGPLMHLRLGFVDVVVAASASVASQFLKTHDANFSSRPPNSGAKHLAYNYQDLVFAPYGPRWRLLRKISSVHLFSGKALDDLKHVRQEEVGVLAHGLASAGSKPVNLAQLLNVCTVNALGRVMVGRRLFGNGMGGEDPKADEFKSMVVEMMVLAGVFNIGDFISSLEWLDLQGVAGKMKKLHKRFDAFLTAIVEEHKRSRGGKHVDMLTTLLSLKEDADGEGAKLTDTEIKALLLNMFTAGTDTSSSTVEWAIAELLRHPKILAQLQQELDQVVGRDRLVTESDLPNLTYLQAVIKETFRLHPSTPLSLPRMATESCEINGFHIPKGATLLVNVWAVSRDPDQWSEPLEFRPERFMSGGEKPNVDIRGNDFEVIPFGAGRRICAGMSLGLRMVSLMTATLVHGFDWTLADGLTPEKLNMDEAYGLTLQRAAPLMVHPRNRLAPHAYNASSS
notes: full-length ORF, 511 residues, C-terminal Twin-Strep-tag, expressed in Saccharomyces cerevisiae INVSc1, microsomal preparation; clone MH468788 has I211 and S224, differing from FJ919631 at both residues (M211 and P224 there)
For the molecule B2, the Km in data set [1] stood at 0.21 ± 0.07 µM; in data set [2], 0.42 ± 0.06 µM; in data set [3] it was 2.11 ± 1.5 µM. In addition, the Vmax came out at 21 µM/min in data set [1], 28.2 µM/min in data set [2] and 43.8 µM/min in data set [3].
